The series deals with the molecule itself. As to the kind of experiment: SEC-MALS.

B1: FOXP3 forkhead domain F373A (IPEX mutation) (domain or fragment, human)
chain: MRPPFTYATLIRWAILEAPEKQRTLNEIYHWFTRMFAAFRNHPATWKNAIRHNLSLHKCFVRVESEKGAVWTVDELEFRKKR
Regarding B1, the binding result was “binds”.

B2: FOXP3 forkhead domain F371C (IPEX mutation) (domain or fragment, human)
chain: MRPPFTYATLIRWAILEAPEKQRTLNEIYHWFTRMCAFFRNHPATWKNAIRHNLSLHKCFVRVESEKGAVWTVDELEFRKKR
Consider B2, for which the “stoichiometry N” value was determined as 2.

B3: FOXP3 forkhead domain double mutant (W348Q and M370T) (domain or fragment, human)
chain: MRPPFTYATLIRQAILEAPEKQRTLNEIYHWFTRTFAFFRNHPATWKNAIRHNLSLHKCFVRVESEKGAVWTVDELEFRKKR
Regarding B3, the binding result was “binds”.

In general, stoichiometry N refers to the number of molecules, sites or subunits per partner or assembly.

(Values after article PMC3085397 (Immunity, 2011).)
